Molecular target: human CD3 (human, UniProt P07766 23-207; P04234 22-171; P09693 23-182)
Assay: cell-based or functional assay

human CD3, sequence (P07766 23-207, chain 1 of 3): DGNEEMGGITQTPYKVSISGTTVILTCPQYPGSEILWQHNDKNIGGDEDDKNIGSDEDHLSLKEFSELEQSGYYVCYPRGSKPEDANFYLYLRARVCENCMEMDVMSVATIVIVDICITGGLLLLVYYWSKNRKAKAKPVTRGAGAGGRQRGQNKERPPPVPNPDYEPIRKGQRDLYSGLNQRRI
human CD3, sequence (P04234 22-171, chain 2 of 3): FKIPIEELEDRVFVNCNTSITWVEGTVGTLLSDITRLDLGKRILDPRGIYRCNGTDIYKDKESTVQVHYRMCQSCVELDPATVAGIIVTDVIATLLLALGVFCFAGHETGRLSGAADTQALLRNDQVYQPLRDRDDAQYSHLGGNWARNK
human CD3, sequence (P09693 23-182, chain 3 of 3): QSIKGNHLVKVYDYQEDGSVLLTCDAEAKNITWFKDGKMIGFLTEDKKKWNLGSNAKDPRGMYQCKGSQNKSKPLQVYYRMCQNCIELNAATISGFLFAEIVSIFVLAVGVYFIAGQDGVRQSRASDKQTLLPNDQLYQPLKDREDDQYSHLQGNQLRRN

Binder | CD4 EC50 (nM); CD69/CD25 on human T cells, plate-coated antibody | CD8 EC50 (nM); CD69/CD25 on human T cells, plate-coated antibody
mAb 167 (antibody, V domains shown) VH: EVHLVESGGGLVQPGRSLRLSCAASGFTFDDYAMHWVRQAPGKGLEWVSGISWNSGTIGYADSVKGRFTISRDNAKNSLYLEMNSLRAEDTALYYCAKDSSGYGHYYHYYIDVWGTGTTVTVSS VL: EIVMTQSPATLSVSPGGRATLSCRASQSVGSNLAWYQQKPGQAPRLLIYDASTRATGIPARFRGSGSGTEFTLTISGLQSEDFAVYYCQLYYNWPHFGQGTRLEIK | 6.3 nM | 6.36 nM
mAb 163 (antibody, V domains shown) VH: EVQLVESGGGLVKTGGSLRLSCVASGFSFKKAWMNWVRQVPGKGLEWVGRIKRNTDGGTADYAAPVKGRFTLSRDDSKKTLFLQMNSLKTEDTAVYYCTTLDSSSYYVGYYYMDVWGKGTTVTVSS VL: DIQMTQSPSSVSASVGDRVIITCRASQDINNWLAWYQQKPGKAPKLLIYTASSLQSGVPSRFSGSGSGTDFTLTIGSLQPEDFATYYCQQAHSLPITFGQGTRLEIK | 6.3 nM | 6.99 nM
mAb 166 (antibody, V domains shown) VH: EVQLVESGGGLVKTGGSLRLSCVASGFSFKKAWMNWVRQAPGRGLEWVGRIKRNTDGGTTDYAAPVKGRFTLSRDDSKNMLYLQMNSLKTEDTAVYYCTTLDSSSLYVGYYYMDVWGKGTTVTVSS VL: DIQMTQSPSSVSASVGDRVTITCRASQDINNWLAWYQQKPGKAPKLLIYTASSLQSGVPSRFSGSGSGTDFTLTISSLQPEDFATYFCQQAHSLPITFGQGTRLEIT | 10.5 nM | 10.6 nM
mAb 164 (antibody, V domains shown) VH: EVQLVESGGGLVKTGGSLRLSCVASGFSFKKAWMNWVRQAPGKGLEWVGRIKRNTDGGTADYAAPVKGRFTLSRDDSKKTLFLQMNSLKTEDTAVYYCTTLDSSSYYVGYYYMDVWGKGTTVTVSS VL: DIQMTQSPSSVSASVGDRVTITCRASQDIKNWLAWYQQKPGKAPKLLIYTASSLQSGVPSRFSGSGSGTDFTLTIGSLQPEDFATYYCQQAHSLPITFGQGTRLEIK | 6.84 nM | 6.62 nM

Next, values leading:

CD4 EC50 (nM); CD69/CD25 on human T cells, plate-coated antibody | CD8 EC50 (nM); CD69/CD25 on human T cells, plate-coated antibody | Binder
6.48 nM | 6.57 nM | mAb 165 (antibody, V domains shown) VH: EVQLVESGGGLVKTGGSLRLSCVASGFSFKKAWMNWVRQAPGKGLEWVGRIKRNTDGGTADYAAPVKGRFTLSRDDSKRTLYLQMNSLKTEDTAVYYCTTLDSSSRYVGYYYMDVWGKGTTVTVSS VL: DIQMTQSPSSVSASVGDRVIITCRASQDINNWLAWYQQKPGKVPKLLIYTASSLQSGVPSRFSGSGSGTDFTLTIGSLQPEDFATYYCQQAHSLPITFGQGTRLEIK
6.76 nM | 7.89 nM | mAb 161 (antibody, V domains shown) VH: EVQLVESGGGLVQPGRSLRLSCAASGITFADYTMHWVRQAPGKGLEWVSGISWNSGSIDYADSVKGRFTISRDNAKKTLYLQMNRLRAEDTALYYCAKDSSGYGHYYFYYLDVWGKGTTVTVSS VL: EIVMTQSPATLSVSPGERATLSCRASQSVSNNLAWYQQKPGQAPRLLIYSTSTRATGIPARFSGSRSGTEFTLTISSLQSEDSAVYYCQQYNNWPHFGQGTRLEIK
12.6 nM | 12.7 nM | mAb 162 (antibody, V domains shown) VH: EVQLVESGGGLVQPGRSLRLSCAASGFTFDNYAMHWVRQAPGKGLEWVSGISWNSGSIGYADSVKGRFTISRDNAKNSLYLELNSLRAEDTALYYCAKDSSGYGYYYNYYMDVWGKGTTVTVSS VL: EIVMTQSPATLSVSPGERATLSCRASQSVRSNLAWYQQKPGQAPRLLIYGASTRATGIPAKFSGSGSGTEFTLTISSLQSEDFAVYYCQYYYNWPHFGQGTRLEIK

From patent publication US20230295310A1 (ABCELLERA BIOLOGICS, published 2023)
